Patent US20090324491A1 (FORERUNNER PHARMA RESEARCH, published 2009)

What was measured:
[1] = molecular target: T1, soluble human EREG fragment (EGF domain; 63Val to 108Leu) comprising a mature structure, R&D Systems cat. no. … (human, UniProt O14944 63-108); assay: ELISA, EREG fragment immobilized on immuno plate
T1 construct: Bought protein; also called soluble EREG; recombinant human EREG
Method: (§1) The binding towards partial fragments of the extracellular domain of human EREG was analyzed to determine antibody epitope. The N-terminal partial sequence fragment of ²⁹Ala to ⁶⁹Ser of human EREG of SEQ ID NO: 21 was expressed as a GST fusion protein and purified to homogeneity. The sequence of the obtained recombinant protein is shown in SEQ ID NO: 172. A soluble human EREG fragment (EGF domain; corresponding to ⁶³Val to ¹⁰⁸Leu of SEQ ID NO: 21) comprising a mature structure was purchased from R&D Systems (cat. no. 1195-EP/CF). Fragments of the EREG protein were immobilized onto an immuno plate, and the binding of the antibodies was examined by ELISA. Most of the antibodies bound to the soluble EREG fragment that comprises the EGF domain (indicated as “ereg” in Table 3). EP25 and EP32 bound to the N-terminal fragment (“Nterm”). All of the isolated antibodies bound to either one of the peptide fragments, and none of the antibodies recognized the sequence beyond residue 109.

[2] = molecular target: T1, soluble human EREG fragment (EGF …); assay: ELISA, EREG fragment immobilized on immuno plate; note: binds, but with low reactivity
Method: as §1

T1 sequence (O14944 63-108): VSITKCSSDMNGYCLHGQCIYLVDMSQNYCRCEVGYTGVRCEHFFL

Row | Binder | binding result [1] | binding result [2]
1 | anti-EREG mouse monoclonal antibody EP08 (#15) (antibody, mouse IgG1, V domains shown, Mouse IgG1/κ hybridoma antibody) VH: QVQLQQPGAELVKPGASVKLSCKASGYTFTSYWMHWVKQRPGQGLEWIGEINPYNGGTNYNEKFKSKATLTVDKSSSTAYMQLSSLTSEDSAVYYCTIWKLGTYWGQGTLVTVSA VL: DIQMTQSPSSLSASLGERVSLTCRASQEISGYLSWLQQKPDGTIKRLIYAASTLDSGVPKRFSGSRSGSDYSLTISSLESEDFADYYCLQYASYPRTFGGGTKLEIK | binds | –
2 | anti-EREG mouse monoclonal antibody EP24 (B3#8) (antibody, mouse IgG1, V domains shown, Mouse IgG1/κ hybridoma antibody) VH: QVQLKESGPGLVAPSQSLSITCTVSGFSLSSYGVHWVRQPPGKGLEWLGVIWRDGSTTYNSALKSRLSISKDGSKSQVFLKMNSLQTDDTAMYYCARNWNGLMDYWGQGTSVTVSS VL: DIQMTQTTSSLSASLGDRVTISCRASQDISYYLNWYQQRPDGTVKLLIYYTSRLHSGVPSRFSGSGSGTESSLTISNLEQEDIATYFCQQGHTVPWTFGGGTKLEIK | binds | –
3 | anti-EREG mouse monoclonal antibody EP27 (B3#18) (antibody, mouse IgG2b, V domains shown, also called B3#18_IgG2b) VH: EDQLQQSGAELVKPGASVKLSCTASGFNIKDTYIQWVKLRPEQGLEWIGRIDPLNGNTKYVPKFQGKATITADTSSNTAYLQLSSLTSEDTAVYYCVRSGTLFDFWGQGTTLTVSS VL: DIQMTQSPSSLSASLGGKVTITCKASQDIHKYIAWYQHKPGKGPRLLIQYTSTLQPGIPSRFSGSGSGRDYSFSISNLEPEDIATYYCLQYDNLRTFGGGTKLEIK | binds | –

More lines, now with the values ahead:

Row | binding result [1] | binding result [2] | Binder
4 | – | binds | anti-EREG mouse monoclonal antibody EP29 (B3#41) (antibody, mouse IgG1, V domains shown, Mouse IgG1/κ hybridoma antibody) VH: EVQLQQSGTVLARPGASVKMSCKASGYTFTSYWMHWVKQRPGQGLEWIGAIYPGNSDSYNQKFKGKAKLTAVTSTSTAYMELSSLTNEDSAVYYCTSVMAYWGQGTSVTVSS VL: DIQMTQSPSSLSASLGERVSLTCRASQDIGNSLNWLQQEPDGTIKRLIYATSNLDSGVSKRFSGSRSGSDYSLTISSLESEDFVDYYCLQYASSPWTFGGGTKLEIK
5 | binds | – | anti-EREG mouse monoclonal antibody EP20 (B2#30) (antibody, mouse IgG1, V domains shown, Mouse IgG1/κ hybridoma antibody) VH: QVQLQQSGAELVRPGVSVKISCKGSGYTFTVYSLHWVKQSHARSLEWIGVISTYYGDAIYNQKFKGKATMTVDKSSSTAYMELARLTSEDSAIYYCAREGNGNPLDYWGQGTTLTVSS VL: QIVLTQSPAIMSASLGERVTMTCTASSSVSSSYLHWYQQKPGSSPKLWIYSTSNLASGVPARFSGSGSGTSYSLTITNMEAEDSATYYCHQYHRSPLTFGAGTKLELK
6 | binds | – | anti-EREG mouse monoclonal antibody EP03 (C7) (antibody, mouse IgG1, V domains shown, Mouse IgG1/κ hybridoma antibody) VH: QVQLQQPGAELVKPGASVKLSCKASGYTFTNYWMNWVKQRPGRGLEWIGRIHPSDSETHYNQKFKNKATLTVDKSSSTAYIQLSSLTSEDSAVYYCANLYYYTMDYWGQGTSVTVSS VL: DIQMTQSPSSLSASLGGKVTITCKASQDINKNIAWHQHKPGKGPRLLIWYTSTLQPGIPSRFSGSGSGRDYSFSISNLEPEDIATYYCLQYDNLPYTFGSGTKLEIK
